Drawing on patent publication US4701455A, “Biopterin analogs” (Burroughs Wellcome Co., priority 1983, dated 1987), this text covers Km for one substance.

This series concerns C[C@H](O)[C@H](O)[C@H]1CNc2nc(N)[nH]c(=O)c2N1. Put plainly: purified protein, by the assay type. The conditions noted are these: other: Km of substrate (tyrosine) with the pterin as cofactor.

Chain of Tyrosine hydroxylase (Homo sapiens) (chain, as listed by the source): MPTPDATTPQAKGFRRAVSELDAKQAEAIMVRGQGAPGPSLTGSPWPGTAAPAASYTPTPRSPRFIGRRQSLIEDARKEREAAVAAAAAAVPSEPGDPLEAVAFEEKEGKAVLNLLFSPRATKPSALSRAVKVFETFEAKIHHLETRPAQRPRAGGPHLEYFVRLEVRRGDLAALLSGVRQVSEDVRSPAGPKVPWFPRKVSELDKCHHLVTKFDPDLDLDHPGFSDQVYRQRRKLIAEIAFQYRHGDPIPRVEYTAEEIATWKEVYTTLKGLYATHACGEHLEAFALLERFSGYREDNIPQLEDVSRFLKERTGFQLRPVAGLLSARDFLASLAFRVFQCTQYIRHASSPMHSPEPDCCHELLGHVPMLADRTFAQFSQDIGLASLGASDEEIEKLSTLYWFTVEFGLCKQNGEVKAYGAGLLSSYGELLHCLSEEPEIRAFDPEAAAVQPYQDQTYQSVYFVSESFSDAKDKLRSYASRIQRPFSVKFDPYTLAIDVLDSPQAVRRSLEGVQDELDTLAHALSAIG

Consider Tyrosine hydroxylase (Homo sapiens), for which the Km (usually the concentration of substrate that gives half-maximal velocity) worked out at 16.0 µM.
